Reference: article PMC9450512
Several values for one entry are separate records, joined by “and”; a condition that tells them apart may be missing. Equal values may be shown once.

Target: Catalytic Domain of Human HDAC7 (cdHDAC7), biotinylated (human)
Assay: BLI

- Kd: 720 nM and 1000 nM
Substance: Ac-Leu-Gly-Lys(Ac)-NH2 (LGKAc), acetylated peptide derived from histone 4 lysine 12
